Series [1] has as its target PfuHAN_DND E562A (Pyrococcus furiosus). Briefly: SEC. In general terms: Size exclusion chromatography separates by hydrodynamic size, large species first.
The next series concerns the target T1, PfuHAN wt (Pyrococcus furiosus, UniProt Q8U3Q7 1-740).
T1 sequence: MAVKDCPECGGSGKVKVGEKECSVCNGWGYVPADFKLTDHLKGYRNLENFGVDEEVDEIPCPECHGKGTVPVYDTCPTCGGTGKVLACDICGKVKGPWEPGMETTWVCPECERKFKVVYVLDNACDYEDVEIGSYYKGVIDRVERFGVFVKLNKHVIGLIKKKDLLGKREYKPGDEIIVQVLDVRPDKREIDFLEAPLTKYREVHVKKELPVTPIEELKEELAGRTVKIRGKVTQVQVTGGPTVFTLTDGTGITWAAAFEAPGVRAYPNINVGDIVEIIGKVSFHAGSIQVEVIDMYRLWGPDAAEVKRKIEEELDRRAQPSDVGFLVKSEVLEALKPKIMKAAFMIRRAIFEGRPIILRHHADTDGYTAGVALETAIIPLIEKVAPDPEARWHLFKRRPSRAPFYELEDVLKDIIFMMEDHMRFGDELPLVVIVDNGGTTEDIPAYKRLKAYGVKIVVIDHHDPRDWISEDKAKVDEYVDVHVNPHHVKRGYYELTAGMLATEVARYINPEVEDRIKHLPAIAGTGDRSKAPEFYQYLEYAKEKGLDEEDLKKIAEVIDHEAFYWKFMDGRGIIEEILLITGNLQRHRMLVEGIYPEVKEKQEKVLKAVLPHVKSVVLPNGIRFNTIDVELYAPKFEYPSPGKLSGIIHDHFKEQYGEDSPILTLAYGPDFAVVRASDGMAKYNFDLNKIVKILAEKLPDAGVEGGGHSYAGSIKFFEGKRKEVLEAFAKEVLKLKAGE
Briefly: MST.

The target in the next series is T2, PfuHAN-D2 (Pyrococcus furiosus, UniProt Q8U3Q7 227-740).
T2 sequence: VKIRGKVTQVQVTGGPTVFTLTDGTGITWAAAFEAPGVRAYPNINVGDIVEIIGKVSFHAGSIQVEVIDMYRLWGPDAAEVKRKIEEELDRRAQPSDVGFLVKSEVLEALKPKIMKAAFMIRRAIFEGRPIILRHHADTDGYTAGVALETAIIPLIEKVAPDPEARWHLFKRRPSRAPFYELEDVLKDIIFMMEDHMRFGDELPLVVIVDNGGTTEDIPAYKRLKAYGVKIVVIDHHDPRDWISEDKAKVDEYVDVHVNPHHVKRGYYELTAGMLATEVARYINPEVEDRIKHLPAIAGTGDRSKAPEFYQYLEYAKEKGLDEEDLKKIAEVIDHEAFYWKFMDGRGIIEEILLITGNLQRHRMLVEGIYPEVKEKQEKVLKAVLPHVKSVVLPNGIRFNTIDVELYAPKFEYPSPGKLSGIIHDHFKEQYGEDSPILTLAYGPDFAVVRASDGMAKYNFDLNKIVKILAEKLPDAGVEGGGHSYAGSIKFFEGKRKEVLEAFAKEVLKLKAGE
The series is described as follows: EMSA. Background: A gel shift assay detects complexes by their altered migration in electrophoresis.

For the next series, the target named is T3, PfuHAN-D3 (Pyrococcus furiosus, UniProt Q8U3Q7 201-740).
T3 sequence: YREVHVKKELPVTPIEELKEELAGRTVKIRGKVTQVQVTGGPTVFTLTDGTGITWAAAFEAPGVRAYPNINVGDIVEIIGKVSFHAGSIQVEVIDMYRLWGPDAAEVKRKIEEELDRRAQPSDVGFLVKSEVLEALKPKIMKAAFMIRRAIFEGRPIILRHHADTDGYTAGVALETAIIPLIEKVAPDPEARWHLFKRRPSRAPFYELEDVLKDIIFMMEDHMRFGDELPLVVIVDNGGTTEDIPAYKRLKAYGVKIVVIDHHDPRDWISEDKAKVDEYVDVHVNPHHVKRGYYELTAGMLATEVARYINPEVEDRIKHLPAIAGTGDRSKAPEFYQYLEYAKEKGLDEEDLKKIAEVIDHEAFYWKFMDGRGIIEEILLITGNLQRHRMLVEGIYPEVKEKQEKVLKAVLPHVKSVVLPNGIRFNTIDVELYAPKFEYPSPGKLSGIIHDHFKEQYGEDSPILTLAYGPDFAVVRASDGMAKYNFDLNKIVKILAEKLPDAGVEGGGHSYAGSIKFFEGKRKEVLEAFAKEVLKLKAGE
The series is described as follows: EMSA.

In another series the target is T4, PfuHAN-D4 (Pyrococcus furiosus, UniProt Q8U3Q7 112-740).
T4 sequence: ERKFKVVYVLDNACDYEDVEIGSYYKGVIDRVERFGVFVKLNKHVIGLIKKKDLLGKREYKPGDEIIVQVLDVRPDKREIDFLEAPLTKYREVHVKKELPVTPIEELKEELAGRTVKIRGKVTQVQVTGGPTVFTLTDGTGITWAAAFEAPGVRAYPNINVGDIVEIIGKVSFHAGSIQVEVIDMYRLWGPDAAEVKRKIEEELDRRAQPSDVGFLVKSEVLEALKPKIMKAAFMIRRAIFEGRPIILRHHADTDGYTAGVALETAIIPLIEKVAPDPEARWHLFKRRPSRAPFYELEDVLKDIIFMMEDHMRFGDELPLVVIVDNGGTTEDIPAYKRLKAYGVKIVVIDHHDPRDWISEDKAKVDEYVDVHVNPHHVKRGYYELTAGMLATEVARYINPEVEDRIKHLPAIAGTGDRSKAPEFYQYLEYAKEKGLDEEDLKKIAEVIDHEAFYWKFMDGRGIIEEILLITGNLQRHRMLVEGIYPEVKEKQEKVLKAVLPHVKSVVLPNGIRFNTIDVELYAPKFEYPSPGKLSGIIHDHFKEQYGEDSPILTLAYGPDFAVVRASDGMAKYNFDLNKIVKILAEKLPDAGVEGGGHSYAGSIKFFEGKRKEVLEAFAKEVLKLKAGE
The series is described as follows: EMSA.

The target in another series is T5, PfuHAN-D5 (Pyrococcus furiosus, UniProt Q8U3Q7 50-740).
T5 sequence: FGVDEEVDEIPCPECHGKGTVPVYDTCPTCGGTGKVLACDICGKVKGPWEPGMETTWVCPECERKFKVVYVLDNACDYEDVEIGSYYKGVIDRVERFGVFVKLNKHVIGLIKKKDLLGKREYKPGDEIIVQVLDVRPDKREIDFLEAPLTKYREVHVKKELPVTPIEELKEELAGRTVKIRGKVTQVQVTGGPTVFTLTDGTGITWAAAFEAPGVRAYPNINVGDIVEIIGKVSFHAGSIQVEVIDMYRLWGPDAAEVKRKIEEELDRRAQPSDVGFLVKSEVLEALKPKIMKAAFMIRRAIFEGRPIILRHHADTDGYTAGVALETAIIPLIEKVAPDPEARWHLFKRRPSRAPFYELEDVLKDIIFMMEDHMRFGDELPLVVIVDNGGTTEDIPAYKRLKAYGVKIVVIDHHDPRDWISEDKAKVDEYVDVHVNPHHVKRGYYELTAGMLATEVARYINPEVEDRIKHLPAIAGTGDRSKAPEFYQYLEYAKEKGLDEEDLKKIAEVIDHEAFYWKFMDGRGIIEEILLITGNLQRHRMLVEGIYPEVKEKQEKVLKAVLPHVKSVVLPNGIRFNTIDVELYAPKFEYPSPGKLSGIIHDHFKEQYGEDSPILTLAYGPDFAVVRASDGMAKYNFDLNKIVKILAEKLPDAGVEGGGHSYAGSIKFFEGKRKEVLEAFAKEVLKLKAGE
The series is described as follows: EMSA.

A further series deals with T6, PfuHAN-D1 (Pyrococcus furiosus, UniProt Q8U3Q7 305-740).
T6 sequence: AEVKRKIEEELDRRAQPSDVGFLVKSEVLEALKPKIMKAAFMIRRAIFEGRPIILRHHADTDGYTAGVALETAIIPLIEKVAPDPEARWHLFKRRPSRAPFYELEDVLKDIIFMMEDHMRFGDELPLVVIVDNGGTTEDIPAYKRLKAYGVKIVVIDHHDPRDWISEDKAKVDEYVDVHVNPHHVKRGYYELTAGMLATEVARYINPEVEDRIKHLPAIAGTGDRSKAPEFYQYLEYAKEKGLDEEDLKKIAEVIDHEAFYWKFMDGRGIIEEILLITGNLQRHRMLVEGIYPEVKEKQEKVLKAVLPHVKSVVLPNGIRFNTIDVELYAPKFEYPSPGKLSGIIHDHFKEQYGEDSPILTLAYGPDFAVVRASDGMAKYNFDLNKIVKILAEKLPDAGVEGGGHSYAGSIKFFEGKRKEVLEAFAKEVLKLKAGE
Briefly: EMSA.

As for PfuHAN_DND E562A (domain or fragment), the stoichiometry N in series [1] was 3.
Consider AGGCTGCGGTCGAGTTGACAGCACTGCACGCATTACTGAGCT (ssDNA) [42-nt ssDNA], for which the binding result with PfuHAN wt, in the series with PfuHAN-D2, with PfuHAN-D3, in the series with PfuHAN-D4, with PfuHAN-D5 and with PfuHAN-D1 was “no binding” each time.

The stoichiometry N is a count of units in the complex or per binding partner.

The values above are taken from article PMC6158738.
